Test results: publication PMC11189300

Target: KNL1 (construct of the BLI titrations with ZWINT)
Experiment: BLI
Details: immobilized ligand KNL1, end of association (~500 s), parent read from panel c, read off a plot

| response (analyte ZWINT^M1 15.6 nM, parent: est. 0.040) [nm] | response (analyte ZWINT^M1 31.2 nM, parent: est. 0.056) [nm] | response (analyte ZWINT^M1 62.5 nM, parent: est. 0.071) [nm] | response (analyte ZWINT^M1 125 nM, parent: est. 0.10) [nm] | response (analyte ZWINT^M1 250 nM, parent: est. 0.14) [nm] | response (analyte ZWINT^M1 500 nM, parent: est. 0.19) [nm] | response (analyte ZWINT^M1 1,000 nM, parent: est. 0.22) [nm] | response (analyte ZWINT^M2 500 nM, parent: est. 0.19) [nm] | response (analyte ZWINT^M2 1000 nM, parent: est. 0.22) [nm] | Substance |
| --- | --- | --- | --- | --- | --- | --- | --- | --- | --- |
| 0.025 | 0.052 | 0.071 | 0.1 | 0.14 | 0.2 | 0.19 |  |  | ZWINT (from UniProt O95229) C54A; L67A; I110A; L114A |
|  |  |  |  |  |  |  | 0.055 | 0.11 | ZWINT (from UniProt O95229) C54A; S85R; I110A; L114A |
